The text below walks through data of patent US20230212587A1, “Mutant Hydroxyphenylpyruvate Dioxygenase Polypeptide, Encoding Gene Thereof and Use Therefor” (Beijing Dabeinong Biotechnology Co., Ltd., priority 2019, published 2023).

B1: N1HPPDm-F372A-02: Sphingobium sp. N1 HPPD mutant F372A, SEQ ID NO: 150 (protein)
chain: MAADSENPLGLHGFAFAEFTSPDPAAMARQFEQLGFVPAARRKDRGLTLYRQGRIAFILNAGEGEQASAFRAAHGPSANGMAFNVADAKAAHRHAIQSGATDADTAQSALPGTYAIEGIGDSLLYLVDSDPFADWDEVPGWREASAERGVGLDLLDHLTHNVRRGQMRVWSEFYATLFGFEEQKFFDIKGQATGLFSQAMIAPDHEIRIPLNESQDDNSQIEEFIREYNGEGIQHLALTTPDIYSTVEKLRANGVRLQDTIDTYYDLVDERVPGHGEDLARLRKNRILIDGDVHDEGLLLQIATETMFGPIFFEIIQRKGNEGFGNGNFQVLYESIELDQIRRGVVTVDA
modifications: N1HPPDm-F372A Amino Acid Sequence
B2: N3HPPD-02: native Burkholderia sp. N3 HPPD, SEQ ID NO: 159 (protein)
chain: MQIPNWENPVGTDGFEFIEYTAPDPKALGQLFERMGFTAIARHRHKDVTVYRQGDINFIINAEPHSFAQRFARLHGPSICAIAFRVQDAAKAYQHALELGAWGFDNKTGPMELNIPAIKGIGDSLIYFVDRWRGKNGAQPGAIGDISIYDVDFEPIAGANPNPAGHGLTYIDHLTHNVHRGRMQEWAEFYERLFNFREVRYFDIEGKVTGVKSKAMTSPCGKIRIPINEEGSDTAGQIQEYLDAYHGEGIQHIALGTNDIYGAVDGLRGKEVKLLDTIDTYYELVDRRVPDHGESLDELKKRKILIDGARDDLLLQIFTENQIGPIFFEIIQRKGNQGFGEGNFKALFESIELDQIRRGVVQDKA
modifications: N3HPPD Amino Acid Sequence (Burkholderia)
B3: N3HPPDm-F372A-02: Burkholderia sp. N3 HPPD mutant F372A, SEQ ID NO: 162 (protein)
chain: B2 chain with F318A
modifications: N3HPPDm-F372A Amino Acid Sequence
B4: N4HPPD-02: native Burkholderia sp. N4 HPPD, SEQ ID NO: 165 (protein)
chain: B2 chain with H65D, N160T, N258S, N343T
modifications: N4HPPD Amino Acid Sequence (Burkholderia)
B5: TaHPPD-02: native Triticum aestivum HPPD, SEQ ID NO: 39 (protein, listed as Triticum aestivum)
chain: MPPTPTTPAATGAGAAAAVTPEHARPRRMVRFNPRSDRFHTLSFHHVEFWCADAASAAGRFAFALGAPLAARSDLSTGNSVHASQLLRSGNLAFLFTAPYANGCDAATASLPSFSADAARRFSADHGLAVRSIALRVADAAEAFRASVDGGARPAFSPVDLGRGFGFAEVELYGDVVLRFVSHPDGTDVPFLPGFEGVSNPGAVDYGLTRFDHVVGNVPELASAAAYVAGFTGFHEFAEFTTEDVGTAESGLNSMVLANNSEGVLLPLNEPVHGTKRRSQIQTFLEHHGGPGVQHIAVASSDVLRTLREMRARSAMGGFDFLPPPLPKYYEGVRRIAGDVLSEAQIKECQELGVLVDRDDQGVLLQIFTKPVGDRPTLFLEMIQRIGCMEKDERGEEYQKGGCGGFGKGNFSELFKSIEDYEKSLEAKQSAAVQGS
modifications: TaHPPD Amino Acid Sequence
B6: N2HPPD-02: native Sphingobium sp. N2 HPPD, SEQ ID NO: 153 (protein)
chain: MTLFDNPLGLDGFEFVEFSAPAKGMLEPVFAAMGFVMIARHRSKDVQLWRQGGINLIANYEPRSPAAYFAAEHGPSACGMGWRVRNAAKAYELAVERGAEPVDVKTGPMELRLPAIRGIGGSIIYLIDRYEDEDGGLSIYDIDFVYEPGVDRHPEGAGFKIIDHLTHNVYGGRMAHWASFYERVFGFREIRYFDIKGEYTGLTSKAMTAPDGKIRIPLNEEGKAGGGQIEEFLRAYNGEGIQHIAFLCDDLIAAWDKLKALGTPLMTAPPATYYEMLDERLPGHGEPVAELQKRGILLDGSTQQGDPRLLLQIFGQATIGPVFFEFIQRKKDEGFGEGNFTALFESMERDQLRRGTLNAGESA
modifications: N2HPPD Amino Acid Sequence (Sphingobacterium)
B7: N2HPPDm-F372A-02: Sphingobium sp. N2 HPPD mutant F372A, SEQ ID NO: 156 (protein)
chain: B6 chain with F314A
modifications: N2HPPDm-F372A Amino Acid Sequence

Where a chain is given by its changes, count along the chain named. In names and notes the source's numbering stands.

The first experiment has as its system Arabidopsis thaliana T1 plants. The experiment is described as follows: Topramezone tolerance of transgenic Arabidopsis thaliana T1 plants (pesticide damage grade by bleached leaf area, score, resistance evaluation). In kind it is in vivo. As to conditions: HPPDs from different species; number of plants (of 16) in this grade; topramezone 25 g ai/ha (1x), 7 DAT. An outline of the steps:
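Herbicide tolerance was judged per plant on a bleaching scale (grade 0 no bleaching to grade 3 fully bleached) 7 DAT. Topramezone doses were 0, 25, 50 and 100 g ai/ha on 18-day-old T1 and wild-type plants.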
On to B1, for which the “Classification and statistics of pesticide damage grade Grade 0” value was 16; the “Classification and statistics of pesticide damage grade Grade 1” value was 0; the “Classification and statistics of pesticide damage grade Grade 2” value stood at 0; the “Classification and statistics of pesticide damage grade Grade 3” value stood at 0.
B2: the “Classification and statistics of pesticide damage grade Grade 0” value was found to be 0; the “Classification and statistics of pesticide damage grade Grade 1” value is reported as 6; the “Classification and statistics of pesticide damage grade Grade 2” value is listed as 8; the “Classification and statistics of pesticide damage grade Grade 3” value is on record as 2.
For B3, in that order: 16, 0, 0 and 0.
As to B4, the “Classification and statistics of pesticide damage grade Grade 0” value came out at 5; the “Classification and statistics of pesticide damage grade Grade 1” value is 6; the “Classification and statistics of pesticide damage grade Grade 2” value is given as 5; the “Classification and statistics of pesticide damage grade Grade 3” value is listed as 0.
As to B5, the “Classification and statistics of pesticide damage grade Grade 0” value stood at 0; the “Classification and statistics of pesticide damage grade Grade 1” value is listed as 0; the “Classification and statistics of pesticide damage grade Grade 2” value is reported as 0; the “Classification and statistics of pesticide damage grade Grade 3” value worked out at 16.
Consider B6, for which the “Classification and statistics of pesticide damage grade Grade 0” value is listed as 0; the “Classification and statistics of pesticide damage grade Grade 1” value is reported as 1; the “Classification and statistics of pesticide damage grade Grade 2” value was determined as 15; the “Classification and statistics of pesticide damage grade Grade 3” value turned out to be 0.
With B7, the “Classification and statistics of pesticide damage grade Grade 0” value was 16; the “Classification and statistics of pesticide damage grade Grade 1” value is recorded as 0; the “Classification and statistics of pesticide damage grade Grade 2” value is recorded as 0; the “Classification and statistics of pesticide damage grade Grade 3” value turned out to be 0.

Staying with this experiment, now noted: HPPDs from different species; number of plants (of 16) in this grade; topramezone 100 g ai/ha (4x), 7 DAT.
With B1, the “Classification and statistics of pesticide damage grade Grade 0” value was found to be 16; the “Classification and statistics of pesticide damage grade Grade 1” value is reported as 0; the “Classification and statistics of pesticide damage grade Grade 2” value turned out to be 0; the “Classification and statistics of pesticide damage grade Grade 3” value was found to be 0.
As for B2, the “Classification and statistics of pesticide damage grade Grade 0” value was 0; the “Classification and statistics of pesticide damage grade Grade 1” value turned out to be 0; the “Classification and statistics of pesticide damage grade Grade 2” value worked out at 0; the “Classification and statistics of pesticide damage grade Grade 3” value amounted to 16.
As for B3, the “Classification and statistics of pesticide damage grade Grade 0” value amounted to 12; the “Classification and statistics of pesticide damage grade Grade 1” value is 4; the “Classification and statistics of pesticide damage grade Grade 2” value was determined as 0; the “Classification and statistics of pesticide damage grade Grade 3” value turned out to be 0.
In the case of B4, the “Classification and statistics of pesticide damage grade Grade 0” value was determined as 0; the “Classification and statistics of pesticide damage grade Grade 1” value is given as 8; the “Classification and statistics of pesticide damage grade Grade 2” value is reported as 2; the “Classification and statistics of pesticide damage grade Grade 3” value worked out at 6.
In the same order, the values of B5 are 0, 0, 0 and 16.
For B6, in that order: 0, 0, 0 and 16.
Take B7: the “Classification and statistics of pesticide damage grade Grade 0” value came out at 16; the “Classification and statistics of pesticide damage grade Grade 1” value is listed as 0; the “Classification and statistics of pesticide damage grade Grade 2” value came to 0; the “Classification and statistics of pesticide damage grade Grade 3” value came to 0.

The same experiment, now with this note: HPPDs from different species; score for pesticide damage 0-100; topramezone 25 g ai/ha (1x), 7 DAT.
Consider B1, for which the Scores was 0.
The same measure, in the same setting: the result for B2 reads 58.
The same measure, in the same setting: the result for B3 reads 0.
With B4, the Scores was found to be 33.
The molecule B5 displayed a Scores of 100.
Still for that read-out and setting: the result for B6 reads 65; that for B7, 0.

Staying with this experiment, now noted: HPPDs from different species; score for pesticide damage 0-100; topramezone 100 g ai/ha (4x), 7 DAT.
B1 registered a Scores of 0.
On the same count and under the same terms, the result for B2 reads 100; that for B3, 8; that for B4, 63.
B5 returned a Scores of 100.
B6 showed a Scores of 100.
On the same count and under the same terms, as for B7, the figure is 0.

The same experiment, now with this note: HPPDs from different species; topramezone 25 g ai/ha (1x), 7 DAT.
For the molecule B1, the Resistance evaluation result is “highly resistant (highly resistant plants (scores 0-15))”.
In the case of B2, the Resistance evaluation result is listed as “poorly resistant (poorly resistant plants (scores 34-67))”.
For the molecule B3, the Resistance evaluation result is on record as “highly resistant (highly resistant plants (scores 0-15))”.
Take B4: the Resistance evaluation result is “moderately resistant (moderately resistant plants (scores 16-33))”.
As to B5, the Resistance evaluation entry is on record as “non-resistant (non-resistant plants (scores 68-100))”.
B6: the Resistance evaluation entry is recorded as “poorly resistant (poorly resistant plants (scores 34-67))”.
The same measure, in the same setting: the result for B7 reads “highly resistant (highly resistant plants (scores 0-15))”.

The same experiment, now with this note: HPPDs from different species; topramezone 100 g ai/ha (4x), 7 DAT.
On to B1, for which the Resistance evaluation entry is listed as “highly resistant (highly resistant plants (scores 0-15))”.
Still for that read-out and setting: the result for B2 reads “non-resistant (non-resistant plants (scores 68-100))”.
Same read-out and setting: the result for B3 reads “highly resistant (highly resistant plants (scores 0-15))”.
Same read-out and setting: as for B4, the entry is “poorly resistant (poorly resistant plants (scores 34-67))”; as for B5, “non-resistant (non-resistant plants (scores 68-100))”; as for B6, “non-resistant (non-resistant plants (scores 68-100))”.
Consider B7, for which the Resistance evaluation result was “highly resistant (highly resistant plants (scores 0-15))”.
